Residue numbers refer to the chain shown, from its start.
B1: Gly422 mutant Asn: Arabidopsis thaliana HPPD (SEQ ID NO 4) with Gly422 replaced by Asn, N-terminal His6-tag (protein, UniProt P93836 1-445, looked up, variant G422N)
4-hydroxyphenylpyruvate …: MGHQNAAVSENQNHDDGAASSPGFKLVGFSKFVRKNPKSDKFKVKRFHHIEFWCGDATNVARRFSWGLGMRFSAKSDLSTGNMVHASYLLTSGDLRFLFTAPYSPSLSAGEIKPTTTASIPSFDHGSCRSFFSSHGLGVRAVAIEVEDAESAFSISVANGAIPSSPPIVLNEAVTIAEVKLYGDVVLRYVSYKAEDTEKSEFLPGFERVEDASSFPLDYGIRRLDHAVGNVPELGPALTYVAGFTGFHQFAEFTADDVGTAESGLNSAVLASNDEMVLLPINEPVHGTKRKSQIQTYLEHNEGAGLQHLALMSEDIFRTLREMRKRSSIGGFDFMPSPPPTYYQNLKKRVGDVLSDDQIKECEELGILVDRDDQGTLLQIFTKPLGDRPTIFIEIIQRVGCMMKDEEGKAYQSGGCGGFGKNNFSELFKSIEEYEKTLEAKQLVG
modifications: N-terminal His6-tag
B2: Phe (protein, UniProt P93836 1-445, looked up, variant G422F)
4-hydroxyphenylpyruvate …: B1 4-hydroxyphenylpyruvate … with N422F
B3: Leu (protein, UniProt P93836 1-445, looked up, variant G422L)
4-hydroxyphenylpyruvate …: B1 4-hydroxyphenylpyruvate … with N422L
B4: Gly422 mutant Cys: Arabidopsis thaliana HPPD (SEQ ID NO 4) with Gly422 replaced by Cys, N-terminal His6-tag (protein, UniProt P93836 1-445, looked up, variant G422C)
4-hydroxyphenylpyruvate …: B1 4-hydroxyphenylpyruvate … with N422C
modifications: N-terminal His6-tag
B5: Asp (protein, UniProt P93836 1-445, looked up, variant G422D)
4-hydroxyphenylpyruvate …: B1 4-hydroxyphenylpyruvate … with N422D
B6: Asn (protein, UniProt P93836 1-445, looked up, variant G422N)
4-hydroxyphenylpyruvate …: B1 4-hydroxyphenylpyruvate …
B7: His (protein, UniProt P93836 1-445, looked up, variant G422H)
4-hydroxyphenylpyruvate …: B1 4-hydroxyphenylpyruvate … with N422H
B8: Ser (protein, UniProt P93836 1-445, looked up, variant G422S)
4-hydroxyphenylpyruvate …: B1 4-hydroxyphenylpyruvate … with N422S
B9: Gly422 mutant His: Arabidopsis thaliana HPPD (SEQ ID NO 4) with Gly422 replaced by His, N-terminal His6-tag (protein, UniProt P93836 1-445, looked up, variant G422H)
4-hydroxyphenylpyruvate …: B1 4-hydroxyphenylpyruvate … with N422H
modifications: N-terminal His6-tag
B10: Val (protein, UniProt P93836 1-445, looked up, variant G422V)
4-hydroxyphenylpyruvate …: B1 4-hydroxyphenylpyruvate … with N422V
B11: Gly422 mutant Val: Arabidopsis thaliana HPPD (SEQ ID NO 4) with Gly422 replaced by Val, N-terminal His6-tag (protein, UniProt P93836 1-445, looked up, variant G422V)
4-hydroxyphenylpyruvate …: B1 4-hydroxyphenylpyruvate … with N422V
modifications: N-terminal His6-tag
B12: Cys (protein, UniProt P93836 1-445, looked up, variant G422C)
4-hydroxyphenylpyruvate …: B1 4-hydroxyphenylpyruvate … with N422C
B13: Met (protein, UniProt P93836 1-445, looked up, variant G422M)
4-hydroxyphenylpyruvate …: B1 4-hydroxyphenylpyruvate … with N422M
B14: Pro (protein, UniProt P93836 1-445, looked up, variant G422P)
4-hydroxyphenylpyruvate …: B1 4-hydroxyphenylpyruvate … with N422P

Tests used:
[1] = test system: Arabidopsis thaliana HPPD; assay: Assay for HPPD activity (4-HPP consumption, DNP photometric readout at 405 nm) in presence and absence of Tembotrione; format: biochemical; conditions: uninhibited enzyme activity set to 100%, 444 nM HPPD, 500 μM 4-HPP, 1 h room temperature
Description: (§1) HPPD produces homogentisate and CO2 from 4-HPP and O2. The enzyme is incubated with its substrate 4-HPP in the presence or absence of an inhibitor. L-ascorbic acid is present as a reductant to retain the active site iron in the ferrous form and Catalase is present to degrade toxic H2O2. After an incubation time of one hour, the reaction is stopped by addition of 2,4-Dinitrophenylhydrazine (DNP). DNP forms a hydrazone derivative with the remaining 4-HPP molecules in the assay mixture which appears in an amber-brown colour at an alkaline pH. The amount of unconsumed 4-HPP is measured photometrically at 405 nm.
(§2) For preparation of inhibitor stock solutions, Tembotrione (MW=440.82) and DKN (Mw=359.3) are dissolved in DMSO to a concentration of 10 mM. […] Further dilutions are made with ddH2O to obtain the inhibitor solutions used in the assay (5 μM, 10 μM and 20 μM). […] A 2% DMSO solution provides for half of the assay mixture in uninhibited reactions to normalize a possible inhibiting effect of DMSO.
(§3) The assay is designed for a HPPD concentration of 444 nM on a monomeric basis and a 4-HPP concentration of 500 μM. This corresponds to 44.4 pmol HPPD and 50 nmol 4-HPP in a 100 μL-assay mixture, resulting in an approximate 1000-fold excess of substrate in relation to the enzyme. The calculated theoretical molecular weight of an AtHPPD subunit is 49.515 kD which results in 2.2 μg HPPD per assay mixture. The calculated theoretical molecular weight of a PfHPPD subunit is 41.205 kD, resulting in 1.8 μg HPPD per assay mixture. The enzyme solution provides for one quarter of the assay mixture volume, so enzyme stock solutions are produced by diluting AtHPPD solutions to 88 μg*mL^−1 with 50 mM TRIS buffer; PfHPPD solutions are diluted to 72 μg*mL^−1.
(§4) The inhibitor concentrations (2.5 μM, 5 μM and 10 μM) provide for 5-fold, 10-fold and 20-fold excess of inhibitor compared to the amount of enzyme. A buffer/substrate solution is prepared which provides for one quarter of the assay mixture. 2.5 mL of buffer/substrate solution contain 1 mL 1 M TRIS buffer, 500 μL 10 mM 4-HPP solution, 500 μL 200 mM L-ascorbic acid solution, 13 μL Catalase solution and 487 μL ddH2O. The assay is carried out in Greiner F-bottom 96 well microplates and all reactions are carried out as triplicates. The controls are carried out sixfold per plate and contain either 25 μL 50 mM TRIS instead of HPPD solution (corresponding to 0% consumption of 4-HPP) or a buffer/substrate solution that contains 500 μL 1 M TRIS instead of 500 μL 10 mM 4-HPP (corresponding to 100% consumption of HPP). The reaction is started by addition of 25 μL HPPD solution to a mixture of 50 μL of the respective inhibitor solution or 50 μL 2% DMSO and 25 μL buffer/substrate solution. The reaction is allowed to proceed for 1 h at room temperature. The reaction is stopped and coloration of 4-HPP is induced by addition of 50 μL 0.04% DNP/3.8 N HCl solution. After 15 min, addition of 100 μL 5 N KOH leads to the colour shift of the hydrazone derivative. Photometric measurement with a BMG FLUOstar Galaxy microplate reader is carried out immediately at 405 nm and data obtained is used for analysis of HPPD activities in presence and absence of an inhibitor.

[2] = test system: Pseudomonas fluorescens HPPD; assay: as above; format: biochemical; conditions: uninhibited enzyme activity set to 100%, 444 nM HPPD, 500 μM 4-HPP, 1 h room temperature
Description: as §1, §2, §3, §4

| Molecule | Relative activity (in percentage) of At HPPD mutants in presence of Tembotrione ([1]; […] Tembotrione) [%] | Relative activity (in percentage) of Pf HPPD mutants in presence of Tembotrione ([2]; 5 μM Tembotrione) [%] | Relative activity (in percentage) of Pf HPPD mutants in presence of Tembotrione ([2]; 10 μM Tembotrione) [%] | Relative activity (in percentage) of Pf HPPD mutants in presence of Tembotrione ([2]; […] Tembotrione) [%] | Relative activity (in percentage) of At HPPD mutants in presence of Tembotrione ([1]; 5 μM Tembotrione) | Relative activity (in percentage) of At HPPD mutants in presence of Tembotrione ([1]; 10 μM Tembotrione) |
| --- | --- | --- | --- | --- | --- | --- |
| B1 | 39 | – | – | – | – | – |
| B2 | 30 | 12 | 3 | 33 | 16% | 11% |
| B3 | 31 | 0 | 0 | 4 | 23% | 14% |
| B4 | 44 | – | – | – | – | – |
| B5 | 20 | 9 | 0 | 18 | 7% | 10% |
| B6 | 39 | – | – | – | 26% | 15% |
| B7 | 50 | 13 | 11 | 26 | 31% | 40% |
| B8 | 18 | – | – | – | 4% | 0% |
| B9 | 51 | – | – | – | about 40% | about 40% |
| B10 | 43 | – | – | – | 22% | 14% |
| B11 | 43 | – | – | – | – | – |
| B12 | 44 | – | – | – | 27% | 19% |
| B13 | 18 | 7 | 10 | 16 | 13% | 12% |
| B14 | 0 | 4 | 0 | 5 | 0% | 0% |

Reference: patent publication US20140223597A1, “Mutated Hydroxyphenylpyruvate Dioxygenase, DNA Sequence and Isolation of Plants Which Are Tolerant To HPPD Inhibitor Herbicides” (Bayer CropScience AG, priority 2008, published 2014)
